One substance from publication doi:10.1101/721233 can be followed below.

In this assay the target is human TrkA transmembrane domain peptide (TrkA-TM-wt) (human). Nature of the assay: NMR structure.

As a reminder, the stoichiometry N is a count of units in the complex or per binding partner. With “human TrkA transmembrane domain peptide (TrkA-TM-wt) (domain or fragment)”, the stoichiometry N is 2.
